Assay results from US20240150465A1 (Chugai, published 2024).

T1: human DLL3 (delta-like protein 3 isoform 1 precursor) expressed on Ba/F3 cells (human, UniProt Q9NYJ7 27-618)
T1 construct: Full-length cDNA stably transfected into mouse Ba/F3 cells; also called human DLL3 expressing Ba/F3
T1 sequence: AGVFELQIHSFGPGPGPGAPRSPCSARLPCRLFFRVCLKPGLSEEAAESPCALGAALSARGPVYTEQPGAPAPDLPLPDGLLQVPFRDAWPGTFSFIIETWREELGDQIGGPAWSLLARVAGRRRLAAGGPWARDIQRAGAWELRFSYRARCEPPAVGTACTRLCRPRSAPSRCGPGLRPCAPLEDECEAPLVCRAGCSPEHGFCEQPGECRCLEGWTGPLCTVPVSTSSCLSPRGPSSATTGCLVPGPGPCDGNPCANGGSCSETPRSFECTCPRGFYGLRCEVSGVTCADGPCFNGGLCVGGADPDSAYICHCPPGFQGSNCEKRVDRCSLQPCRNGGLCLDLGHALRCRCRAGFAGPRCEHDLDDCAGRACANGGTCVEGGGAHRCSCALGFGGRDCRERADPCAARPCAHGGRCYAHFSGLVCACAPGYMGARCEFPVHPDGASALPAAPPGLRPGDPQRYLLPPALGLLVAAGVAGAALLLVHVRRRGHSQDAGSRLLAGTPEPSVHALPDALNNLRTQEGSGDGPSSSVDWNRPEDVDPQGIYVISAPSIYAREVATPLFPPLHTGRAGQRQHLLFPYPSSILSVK

T2: del0
T2 construct: also called human DLL3 ECD with Flag-tag on C-terminus
T2 chain: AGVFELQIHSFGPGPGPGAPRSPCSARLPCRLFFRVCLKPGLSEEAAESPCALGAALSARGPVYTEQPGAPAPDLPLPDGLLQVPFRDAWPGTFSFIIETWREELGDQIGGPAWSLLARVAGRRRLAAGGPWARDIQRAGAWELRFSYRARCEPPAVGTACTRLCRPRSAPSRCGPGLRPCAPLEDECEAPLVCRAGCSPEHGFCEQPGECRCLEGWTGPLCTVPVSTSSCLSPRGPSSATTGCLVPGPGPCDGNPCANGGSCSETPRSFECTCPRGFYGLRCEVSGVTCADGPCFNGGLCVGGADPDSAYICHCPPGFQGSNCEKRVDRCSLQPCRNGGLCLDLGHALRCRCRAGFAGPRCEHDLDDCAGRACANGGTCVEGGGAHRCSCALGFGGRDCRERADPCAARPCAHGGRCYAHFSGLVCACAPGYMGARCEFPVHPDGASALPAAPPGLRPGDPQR

T3: del6
T3 construct: also called truncated human DLL3 ECD variant with Flag-tag on C-terminus
T3 chain: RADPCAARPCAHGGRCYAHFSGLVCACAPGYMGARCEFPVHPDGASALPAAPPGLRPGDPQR

T4: del5
T4 construct: also called truncated human DLL3 ECD variant with Flag-tag on C-terminus
T4 chain: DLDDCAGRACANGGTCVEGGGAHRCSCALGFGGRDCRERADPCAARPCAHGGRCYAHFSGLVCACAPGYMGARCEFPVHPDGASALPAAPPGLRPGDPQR

T5: human DLL3 on the surface of cancer cell lines SK-MEL 30, NCI-H1436 and NCI-H2227 (human, UniProt Q9NYJ7 27-618)
T5 construct: whole, on cells; Endogenous protein of human cancer cell lines
T5 sequence (looked up): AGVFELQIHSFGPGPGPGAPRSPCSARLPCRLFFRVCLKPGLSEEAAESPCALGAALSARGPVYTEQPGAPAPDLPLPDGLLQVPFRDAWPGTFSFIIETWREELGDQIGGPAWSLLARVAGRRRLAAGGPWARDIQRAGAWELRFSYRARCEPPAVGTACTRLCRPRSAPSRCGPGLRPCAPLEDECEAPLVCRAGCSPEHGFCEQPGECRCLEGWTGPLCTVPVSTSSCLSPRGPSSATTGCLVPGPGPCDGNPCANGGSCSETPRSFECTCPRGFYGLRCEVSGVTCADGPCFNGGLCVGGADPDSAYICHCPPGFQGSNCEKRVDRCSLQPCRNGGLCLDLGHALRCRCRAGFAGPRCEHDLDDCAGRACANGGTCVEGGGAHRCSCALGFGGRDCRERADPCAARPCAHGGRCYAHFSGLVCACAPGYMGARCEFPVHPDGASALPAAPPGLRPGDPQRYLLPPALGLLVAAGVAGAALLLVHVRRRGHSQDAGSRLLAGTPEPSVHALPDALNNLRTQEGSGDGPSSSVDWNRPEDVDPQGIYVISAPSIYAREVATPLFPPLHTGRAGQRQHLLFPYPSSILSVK


Tests used:
[1] = target: T1, human DLL3 (delta-like protein 3 …); experiment: cell ELISA, B-cell culture supernatants on immobilized hDLL3/BaF_H3 cells
Experimental: ELISA screening was conducted to test specificity of antibodies in B-cell culture supernatants. Human DLL3 expressing Ba/F3 (hDLL3/BaF_H3 established in Example 2, 2.5×10⁴ cells) were immobilized onto a Nunc MaxiSorp 384-well plate (Sigma-Aldrich) which was pre-coated with BSA (Sigma-Aldrich) and SUNBRIGHT (registered trademark) OE-080CS as Biocompatible Anchor for cell Membrane (YUKA SANGYO). Immobilized cells were incubated with 20 microliters (micro L) of B-cell culture supernatants for 1 hour. The supernatants were aspirated and the cells were washed with HEPES buffer (0.02 M HEPES, 5 mM KCl, 4 mM NaHCO₃, 138 mM NaCl, 2 mM CaCl₂, 5 mM Glucose, 0.4 mM KH₂PO₄, 0.34 mM Na₂HPO₄° and 0.1% BSA). After washing, goat anti-rabbit IgG polyclonal antibody HRP conjugate (BETHYL, A120-111P) was added. The cells were further incubated on ice for 1 hour and washed. Then, ABTS Microwell Peroxidase Substrate (Kirkegaard & Perry Laboratories) was added and OD405 was analyzed with […]ax 384 (Molecular Devices).

del0 = target: T2, del0; experiment: ELISA with the human DLL3 ECD fragment proteins del0 to del6, OD405
Experimental: (§1) Nunc MaxiSorp 384-well plates (Sigma-Aldrich) were coated with each of the human DLL3 ECD fragment proteins del0 to del6, and blocked with 20% Blocking One (NACALAI TESQUE). Blocking buffer was removed and recombinant anti-DLL3 antibodies were incubated with the immobilized proteins for 1 hour at room temperature and washed with HEPES buffer (0.05% Tween20, HEPES). Monoclonal ANTI-FLAG M2-Peroxidase, Clone M2 (Sigma-Aldrich) was then added and incubated for 1 hour at room temperature and washed. Then, ABTS Microwell Peroxidase Substrate (Kirkegaard & Perry Laboratories) was added and OD405 was analyzed with […]ax 384 (Molecular Devices).

del6 = target: T3, del6; experiment: as above
Experimental: as §1

del5 = target: T4, del5; experiment: as above
Experimental: as §1

[2] = target: T5, human DLL3 on the surface of cancer …; experiment: flow cytometry on SK-MEL-30 cells, 20 micro g/mL antibody, FITC-labeled goat anti-rabbit IgG [A]
Experimental: The cancer cells (5×10⁵ cells) were washed with 0.5% BSA-supplemented CellWASH (BD Bioscience) (hereinafter referred to as FACS/PBS). Bivalent anti-DLL3 antibody (DLA0316-rbIgG) or the control antibody (rabbit IgG) was added at a final concentration of 20 micro g/mL in a 50 micro L solution. After being left to stand at 4 degrees C. for 30 to 60 minutes, the cells were washed with FACS/PBS, and an FITC-labeled goat anti-rabbit IgG antibody diluted 50-fold with FACS/PBS was added to the cells. After being left to stand at 4 degrees C. for further 30 minutes, the cells were washed with FACS/PBS, and analyzed by FACS Verse (Becton Dickinson).

Row | Binder | binding result [1] | binding result (del0) | binding result (del6) | binding result (del5) | binding result [2]
1 | DLA0106 (antibody, human IgG1, V domains shown, Rabbit B-cell clone, screened as B-cell culture supernatant) VH: QSVEESGGRLVTPGTPLTLTCTVSGIDLSSYAMSWVRQAPGKGLEWIGIISNSGSGFYANWAKGRFTISKTSSTTVDVKISSPTTEDTATYFCARVFDADSSGYYYYGMDPWGPGTLVTVSS VL: DVVMTQTPSSVSEPVGGTVTIKCQASEDIESYLAWYQQKPGQPPKLLIYAASTLASGVSSRFRGSGSGTEYTLTISDLECADAATYYCQSTYYDSSGVDWAFGGGTEVVVK | binds | binds | no binding | no binding | 
2 | DLA0316 (antibody, human IgG1, V domains shown, Rabbit B-cell clone, screened as B-cell culture supernatant) VH: QEQLVESGGGLVQPGGSLKLSCKVSGFDFSNYGVSWVRQAPGKGLEWIGYIDPAFGRTYYASWVNGRFTISSHNAQNTLYLQLNSLTAADTATYFCVRVALVVAGVAYYGMDVWGPGTLVTVSS VL: DVVMTQTPASVEAAVGGTVTINCQASQNIYSYLSWYQQKPGQPPKLLIYRTSTLASGVPSRFKGSGSGTQFTLTISDLECADAATYYCQSYYYSSGSSYGAFAFGGGTEVVVK | binds | binds |  |  | 
3 | DLA0580 (antibody, human IgG1, V domains shown, Rabbit B-cell clone, screened as B-cell culture supernatant) VH: QEQLVESGGGLVQPGASLTLTCKASGFDFTSNAMCWVRQAPGKGPEWIACIYNDDGSAYSASWAKGRFTVSKTSSTAVTLQVTGLTAADTATYFCARSPYYTYGGAPSAYASGYFNLWGPGTLVTVSS VL: DIVMTQTPASVEAAVGGTVTIKCQASENIYNSLAWYQQKPGQPPKLLMHDASVLTSGVPSRFSGSGYGTEFTLTISDLECADAATYYCQSDYYSTGGSYGFAFGGGTEVVVK | binds | binds | no binding | no binding | 
4 | DLA0641 (antibody, human IgG1, V domains shown, Rabbit B-cell clone, screened as B-cell culture supernatant) VH: QEQLVESGGGLVQPGASLTLTCKASGFSFNTSYCPCWVRQVPGKGPEWIACIDAGYSGATWYANWAKGRFTISKTSSTTVTLQMTSLTGADTATYFCVRCDAAGSGAFNLWGPGTLVTVSS VL: AYDMTQTPASVEVPVGGTVTIKCQASQSIYSYLSWYQQKPGQPPKLLIYEASKLTSGVPSRFSGSGSGTEFTLTISGVQCDDAATYYCQQGSGYMDVDNVFGGGTEVVVK | binds | binds |  |  | 
5 | DLA0769 (antibody, human IgG1, V domains shown, Rabbit B-cell clone, screened as B-cell culture supernatant) VH: QEQLVESGGGLVQPEGSLTLTCTASGFSFSSSGYMCWVRQAPGKGLEWIACISGGSSGDTDYANWAKGRFSISKTSSTTVTLQMTSLTVADTATYFCARDVYIDSTIFNFNLWGPGTLVTVSS VL: QVLTQTPSPVSAAVGGTVTISCQASQSVYNNNNLAWYQQKPGQPPKLLIYAASSLASGVPSRFKGSGAGTQFTLTISDLECDDAATYYCQGTYYSSGWYSTFGGGTEVVVK | binds | binds |  |  | 
6 | DLA0841 (antibody, human IgG1, V domains shown, Rabbit B-cell clone, screened as B-cell culture supernatant) VH: QEQLVESGGGLVQPEGSLTLTCTASGFSFSSSYDMCWVRQAPGKGPEWIACIYTGDGSTDYASWAKGRFTVSKASSTTVTLQMTSLAVADTATYFCARNSGYGYFGLWGPGTLVTVSS VL: QVLTQTPSPVSAAVGGTVTISCQSTESVYGSDWLSWYQQKPGQPPKVLIYQASNLEIGVPSRFKGSGSGTQFTLTISGAQCDDAATYYCQGYYSGYIYAFGGGTEVVVK | binds | binds |  |  | 
7 | DLA0316-rbIgG (antibody, V domains shown, also called bivalent DLA0316; Bivalent anti-DLL3 antibody) VH: QEQLVESGGGLVQPGGSLKLSCKVSGFDFSNYGVSWVRQAPGKGLEWIGYIDPAFGRTYYASWVNGRFTISSHNAQNTLYLQLNSLTAADTATYFCVRVALVVAGVAYYGMDVWGPGTLVTVSS VL: DVVMTQTPASVEAAVGGTVTINCQASQNIYSYLSWYQQKPGQPPKLLIYRTSTLASGVPSRFKGSGSGTQFTLTISDLECADAATYYCQSYYYSSGSSYGAFAFGGGTEVVVK |  |  |  |  | binds
8 | DLA0126 (antibody, human IgG1, V domains shown, Rabbit B-cell clone, screened as B-cell culture supernatant) VH: QSVEESGGRLVTPGTPLTLTCTVSGFSLSRYAMSWVRQAPGKGLEWIGIITGGGDPYYASWAKGRFTISKTSTTMDLKITSPTTEDTATYFCARMIGSEYASSSEYYDAFDPWGPGTLVTVSS VL: ALVMTQTPSSVSAAVGGTVTINCQASQNIYSNLAWYQQKPGQRPKLLIYGASNLESGVPSRFKGSGSGTEYTLTISDLECDDAAIYYCQSAYYTTSVDVLYPFGGGTEVVVK | binds | binds | no binding | no binding | 
